Data reported in patent US20210309709A1 (AKSTON BIOSCIENCES, published 2021).

biological target: T1, biotinylated human complement component C1q (Sigma-Aldrich) (human, UniProt P02745 23-245; P02746 28-253; P02747 29-245); assay: ELISA, fusion coated, biotinylated human C1q at 1000 ng/mL
T1 construct: Sigma-Aldrich', a protein complex; also called complement component 1q; biotinylated-C1q
T1 sequence (P02745 23-245 limits assumed, chain 1 of 3): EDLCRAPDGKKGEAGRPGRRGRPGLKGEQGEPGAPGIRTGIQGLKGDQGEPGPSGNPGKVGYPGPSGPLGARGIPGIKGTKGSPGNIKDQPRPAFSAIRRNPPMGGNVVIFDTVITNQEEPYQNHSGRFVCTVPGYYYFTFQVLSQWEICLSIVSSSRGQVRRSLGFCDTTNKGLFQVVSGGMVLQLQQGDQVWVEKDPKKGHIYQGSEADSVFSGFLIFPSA
T1 sequence (P02746 28-253 limits assumed, chain 2 of 3): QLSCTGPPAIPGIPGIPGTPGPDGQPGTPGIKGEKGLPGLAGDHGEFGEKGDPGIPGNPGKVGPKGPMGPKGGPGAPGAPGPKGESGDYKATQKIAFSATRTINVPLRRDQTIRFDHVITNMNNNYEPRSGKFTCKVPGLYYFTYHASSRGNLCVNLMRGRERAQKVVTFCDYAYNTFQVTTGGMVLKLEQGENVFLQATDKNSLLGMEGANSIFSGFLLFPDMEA
T1 sequence (P02747 29-245 limits assumed, chain 3 of 3): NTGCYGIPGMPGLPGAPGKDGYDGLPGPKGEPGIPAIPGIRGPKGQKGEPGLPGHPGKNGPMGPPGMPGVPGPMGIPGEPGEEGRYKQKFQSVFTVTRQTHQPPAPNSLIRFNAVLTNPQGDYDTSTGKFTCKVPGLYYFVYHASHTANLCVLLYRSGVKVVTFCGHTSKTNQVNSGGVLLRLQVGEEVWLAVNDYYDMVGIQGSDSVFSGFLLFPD

| OD450 Ratio to SEQ ID NO: 76 [ratio] | Binder |
| --- | --- |
| 0.309 | insulin-Fc fusion protein of SEQ ID NO: 75 (Fc fusion, HEK293, Protein A; also called hIgG2) FVNQHLCGSHLVEALELVCGERGFHYGGGGGGSGGGGGIVEQCCTSTCSLDQLENYCGGGGGQGGGGQGGGGQGGGGGECPPCPAPPVAGPSVFLFPPKPKDTLMISRTPEVTCVVVDVSHEDPEVQFNWYVDGVEVHNAKTKPREEQFNSTFRVVSVLTVVHQDWLNGKEYKCKVSNKGLPAPIEKTISKTKGQPREPQVYTLPPSREEMTKNQVSLTCLVKGFYPSDIAVEWESNGQPENNYKTTPPMLDSDGSFFLYSKLTVDKSRWQQGNVFSCSVMHEALHNHYTQKSLSLSPG |

biological target: T2, biotinylated recombinant human Fc(gamma)RI (R&D Systems) (human, UniProt P12314 16-288); assay: ELISA, fusion coated, biotinylated rhFc(gamma)RI at 3000 ng/mL
T2 construct: soluble in ELISA; also called rhFc(gamma)RI; Fc(gamma) receptor I
Experimental: (§1) The binding of insulin-Fc fusion proteins to the Fc(gamma)RI at pH 7.4 is conducted using an ELISA assay as follows using human Fc(gamma)RI (i.e., rhFc(gamma)RI). Insulin-Fc fusion proteins are diluted to 10 μg/mL in sodium bicarbonate buffer at pH 9.6 and coated on Maxisorp (Nunc) microtiter plates overnight at 4° C., after which the microplate strips are washed 5 times with PBST (PBS/0.05% Tween-20) buffer and blocked with Superblock blocking reagent (ThermoFisher). Serial dilutions of biotinylated rhFc(gamma)RI (recombinant human Fc(gamma)RI; R&D Systems) are prepared in PBST/10% Superblock buffer from 3000 ng/mL to 4.1 ng/mL and loaded at 100 μL/well onto the microplate strips coated with insulin-Fc fusion protein. The microtiter plate is incubated for 1 hour at room temperature after which time the microplate strips are washed 5 times with PBST and then loaded with 100 μL/well of streptavidin-HRP diluted 1:10000 in PBST/10% Superblock buffer. After incubating for 45 min, the microplate strips are washed again 5 times with PBST. TMB is added to reveal the bound Fc(gamma)RI proteins and is stopped with ELISA stop reagent (Boston Bioproducts). The plate is read in an ELISA plate reader at 450 nm, and the OD450 values (proportional to the binding of rhFc(gamma)RI to insulin-Fc protein) are plotted against log concentrations of rhFc(gamma)RI added to each well to generate binding curves using GraphPad Prism software. For groupings of compounds with somewhat similar curves, the OD450 at one of the higher concentrations, for instance at rhFc(gamma)RI concentrations of 3000 ng/mL, can be used to identify differences between coated insulin-Fc fusion protein compounds. […]
Finally, select compounds were tested for their likelihood to interact with the immune system by measuring their Fc(gamma) receptor binding activity according to the procedure of Example 15.

T2 sequence (P12314 16-288 limits assumed): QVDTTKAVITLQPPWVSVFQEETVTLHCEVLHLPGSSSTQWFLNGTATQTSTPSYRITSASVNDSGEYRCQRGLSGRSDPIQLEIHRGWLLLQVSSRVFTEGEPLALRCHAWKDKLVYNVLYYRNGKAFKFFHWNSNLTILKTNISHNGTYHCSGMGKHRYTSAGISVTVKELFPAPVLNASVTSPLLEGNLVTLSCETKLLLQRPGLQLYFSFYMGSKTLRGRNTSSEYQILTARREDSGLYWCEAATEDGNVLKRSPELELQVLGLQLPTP

| OD450 nm [OD450] | OD450 nm minus assay background [OD450] | ratio to SEQ ID NO: 36 [ratio] | Binder |
| --- | --- | --- | --- |
| 0.368 | 0.311 | 0.84 | insulin-Fc fusion protein of SEQ ID NO: 26 (Fc fusion, native N-glycosylation site cNg-NB151) FVNQHLCGSHLVEALELVCGERGFHYGGGGGGSGGGGGIVEQCCTSTCSLDQLENYCGGGGGQGGGGQGGGGQGGGGGDCPKCPAPEMLGGPSVFIFPPKPKDTLLIARTPEVTCVVVDLDPEDPEVQISWFVDGKQMQTAKTQPREEQFNGTYRVVSVLPIGHQDWLKGKQFTCKVNNKALPSPIERTISKARGQAHQPSVYVLPPSREELSKNTVSLTCLIKDFFPPDIDVEWQSNGQQEPESKYRTTPPQLDEDGSYFLYSKLSVDKSRWQRGDTFICAVMHEALHNHYTQESLSHSPG |
| 0.175 | 0.118 | 0.32 | insulin-Fc fusion protein of SEQ ID NO: 62 (Fc fusion, also called cNg-NB151-S) FVNQHLCGSHLVEALELVCGERGFHYGGGGGGSGGGGGIVEQCCTSTCSLDQLENYCGGGGGQGGGGQGGGGQGGGGGDCPKCPAPEMLGGPSVFIFPPKPKDTLLIARTPEVTCVVVDLDPEDPEVQISWFVDGKQMQTAKTQPREEQFSGTYRVVSVLPIGHQDWLKGKQFTCKVNNKALPSPIERTISKARGQAHQPSVYVLPPSREELSKNTVSLTCLIKDFFPPDIDVEWQSNGQQEPESKYRTTPPQLDEDGSYFLYSKLSVDKSRWQRGDTFICAVMHEALHNHYTQESLSHSPG |
| 0.177 | 0.12 | 0.32 | insulin-Fc fusion protein of SEQ ID NO: 30 (Fc fusion) FVNQHLCGSHLVEALALVCGERGFHYGGGGGGSGGGGGIVEQCCTSTCSLDQLENYCGGGGGQGGGGQGGGGQGGGGGDCPKCPAPEMLGGPSVFIFPPKPKDTLLIARTPEVTCVVVDLDPEDPEVQISWFVDGKQMQTAKTQPREEQFSGTYRVVSVLPIGHQDWLKGKQFTCKVNNKALPSPIERTISKARGQAHQPSVYVLPPSREELSKNTVSLTCLIKDFFPPDIDVEWQSNGQQEPESKYRTTPPQLDEDGSYFLYSKLSVDKSRWQRGDTFICAVMHEALHNHYTQESLSHSPG |
| 0.166 | 0.109 | 0.29 | insulin-Fc fusion protein of SEQ ID NO: 61 (Fc fusion, also called cNg-NB151-S, NB119-A) FVNQHLCGSHLVEALELVCGERGFHYGGGGGGSGGGGGIVEQCCTSTCSLDQLENYCGGGGGQGGGGQGGGGQGGGGGDCPKCPAPEMLGGPSVFIFPPKPKDTLLIARTPEVTCVVVALDPEDPEVQISWFVDGKQMQTAKTQPREEQFSGTYRVVSVLPIGHQDWLKGKQFTCKVNNKALPSPIERTISKARGQAHQPSVYVLPPSREELSKNTVSLTCLIKDFFPPDIDVEWQSNGQQEPESKYRTTPPQLDEDGSYFLYSKLSVDKSRWQRGDTFICAVMHEALHNHYTQESLSHSPG |
| 0.428 | 0.371 | 1 | insulin-Fc fusion protein of SEQ ID NO: 36 (Fc fusion, native N-glycosylation site cNg-NB139, HEK293, Protein A) FVNQHLCGSDLVEALALVCGERGFFYTDPTGGGPRRGIVEQCCHSICSLYQLENYCNGGGGAGGGGDCPKCPAPEMLGGPSVFIFPPKPKDTLLIARTPEVTCVVVDLDPEDPEVQISWFVDGKQMQTAKTQPREEQFNGTYRVVSVLPIGHQDWLKGKQFTCKVNNKALPSPIERTISKARGQAHQPSVYVLPPSREELSKNTVSLTCLIKDFFPPDIDVEWQSNGQQEPESKYRTTPPQLDEDGSYFLYSKLSVDKSRWQRGDTFICAVMHEALHNHYTQESLSHSPG |
| 0.253 | 0.196 | 0.53 | insulin-Fc fusion protein of SEQ ID NO: 58 (Fc fusion, purified on Protein A or Protein G) FVNQHLCGSHLVEALELVCGERGFHYGGGGGGSGGGGGIVEQCCTSTCSLDQLENYCGGGGGQGGGGQGGGGQGGGGGRCTDTPPCPVPEPLGGPSVLIFPPKPKDILRITRTPEVTCVVLDLGREDPEVQISWFVDGKEVHTAKTQSREQQFNGTYRVVSVLPIEHQDWLTGKEFKCRVNHIDLPSPIERTISKARGRAHKPSVYVLPPSPKELSSSDTVSITCLIKDFYPPDIDVEWQSNGQQEPERKHRMTPPQLDEDGSYFLYSKLSVDKSRWQQGDPFTCAVMHETLQNHYTDLSLSHSPG |

biological target: T2, biotinylated recombinant human …; assay: as above; remark: another data set of the same source
Experimental: The binding of insulin-Fc fusion proteins to the Fc(gamma)RI at pH 7.4 was conducted using an ELISA assay as follows using human Fc(gamma)RI (i.e., rhFc(gamma)RI). Insulin-Fc fusion proteins were diluted to 10 μg/mL in sodium bicarbonate buffer at pH 9.6 and coated on Maxisorp (Nunc) microtiter plates overnight at 4° C., after which the microplate strips were washed 5 times with PBST (PBS/0.05% Tween-20) buffer and blocked with Superblock blocking reagent (ThermoFisher). […] The plate was read in an ELISA plate reader at 450 nm, and the OD450 values (proportional to the binding of rhFc(gamma)RI to insulin-Fc protein) were plotted against log concentrations of rhFc(gamma)RI added to each well to generate binding curves using GraphPad Prism software. […] In order to compare differences across multiple insulin-Fc fusion proteins run at different times, the human Fc(gamma)RI assay OD450 Ratio was calculated as the OD450 value of a test insulin-Fc fusion protein compound obtained at a biotinylated-Fc(gamma)RI concentration of 3000 ng/mL, divided by the OD450 value of a reference insulin-Fc fusion protein of SEQ ID NO: 76 obtained at a biotinylated-Fc(gamma)RI concentration of 3000 ng/mL.

| OD450 Ratio to SEQ ID NO: 76 [ratio] | Binder |
| --- | --- |
| 0.045 | insulin-Fc fusion protein of SEQ ID NO: 75 (Fc fusion, HEK293, Protein A; also called hIgG2) FVNQHLCGSHLVEALELVCGERGFHYGGGGGGSGGGGGIVEQCCTSTCSLDQLENYCGGGGGQGGGGQGGGGQGGGGGECPPCPAPPVAGPSVFLFPPKPKDTLMISRTPEVTCVVVDVSHEDPEVQFNWYVDGVEVHNAKTKPREEQFNSTFRVVSVLTVVHQDWLNGKEYKCKVSNKGLPAPIEKTISKTKGQPREPQVYTLPPSREEMTKNQVSLTCLVKGFYPSDIAVEWESNGQPENNYKTTPPMLDSDGSFFLYSKLTVDKSRWQQGNVFSCSVMHEALHNHYTQKSLSLSPG |

biological target: T2, biotinylated recombinant human …; assay: ELISA, fusion coated, biotinylated rhFc(gamma)RI (concentration not clear from the table head)
Experimental: as §1

| OD450 nm [OD450] | OD450 nm minus assay background [OD450] | ratio to SEQ ID NO: 36 [ratio] | Binder |
| --- | --- | --- | --- |
| 0.386 | 0.323 | 1 | insulin-Fc fusion protein of SEQ ID NO: 36 (Fc fusion, native N-glycosylation site cNg-NB139, HEK293, Protein A) FVNQHLCGSDLVEALALVCGERGFFYTDPTGGGPRRGIVEQCCHSICSLYQLENYCNGGGGAGGGGDCPKCPAPEMLGGPSVFIFPPKPKDTLLIARTPEVTCVVVDLDPEDPEVQISWFVDGKQMQTAKTQPREEQFNGTYRVVSVLPIGHQDWLKGKQFTCKVNNKALPSPIERTISKARGQAHQPSVYVLPPSREELSKNTVSLTCLIKDFFPPDIDVEWQSNGQQEPESKYRTTPPQLDEDGSYFLYSKLSVDKSRWQRGDTFICAVMHEALHNHYTQESLSHSPG |
| 0.204 | 0.141 | 0.44 | insulin-Fc fusion protein of SEQ ID NO: 41 (Fc fusion, also called cNg-NB139-D; cNg-D) FVNQHLCGSDLVEALALVCGERGFFYTDPTGGGPRRGIVEQCCHSICSLYQLENYCNGGGGAGGGGDCPKCPAPEMLGGPSVFIFPPKPKDTLLIARTPEVTCVVVDLDPEDPEVQISWFVDGKQMQTAKTQPREEQFDGTYRVVSVLPIGHQDWLKGKQFTCKVNNKALPSPIERTISKARGQAHQPSVYVLPPSREELSKNTVSLTCLIKDFFPPDIDVEWQSNGQQEPESKYRTTPPQLDEDGSYFLYSKLSVDKSRWQRGDTFICAVMHEALHNHYTQESLSHSPG |
| 0.14 | 0.077 | 0.24 | insulin-Fc fusion protein of SEQ ID NO: 40 (Fc fusion, non-glycosylated canine IgGB Fc; also called cNg-NB139-S; cNg-S) FVNQHLCGSDLVEALALVCGERGFFYTDPTGGGPRRGIVEQCCHSICSLYQLENYCNGGGGAGGGGDCPKCPAPEMLGGPSVFIFPPKPKDTLLIARTPEVTCVVVDLDPEDPEVQISWFVDGKQMQTAKTQPREEQFSGTYRVVSVLPIGHQDWLKGKQFTCKVNNKALPSPIERTISKARGQAHQPSVYVLPPSREELSKNTVSLTCLIKDFFPPDIDVEWQSNGQQEPESKYRTTPPQLDEDGSYFLYSKLSVDKSRWQRGDTFICAVMHEALHNHYTQESLSHSPG |
| 0.126 | 0.063 | 0.2 | insulin-Fc fusion protein of SEQ ID NO: 42 (Fc fusion, also called cNg-NB139-K; cNg-K) FVNQHLCGSDLVEALALVCGERGFFYTDPTGGGPRRGIVEQCCHSICSLYQLENYCNGGGGAGGGGDCPKCPAPEMLGGPSVFIFPPKPKDTLLIARTPEVTCVVVDLDPEDPEVQISWFVDGKQMQTAKTQPREEQFKGTYRVVSVLPIGHQDWLKGKQFTCKVNNKALPSPIERTISKARGQAHQPSVYVLPPSREELSKNTVSLTCLIKDFFPPDIDVEWQSNGQQEPESKYRTTPPQLDEDGSYFLYSKLSVDKSRWQRGDTFICAVMHEALHNHYTQESLSHSPG |
